Assay results as given in patent publication US10704030B2, “P450-BM3 variants with improved activity” (Codexis, Inc., priority 2015, dated 2020).
Where a chain is given by its changes, count along the chain named. Names and notes keep the numbering of the source.

B1: Variant 16: P450-BM3 variant of SEQ ID NO: 6: K32R; C48S; Y52F; G115R; L216Y; D232H; E349K; M491A; T577A; E619D; A627S; D722S (protein)
chain: MTIKEMPQPKTFGELKNLPLLNTDKPVQALMRIADELGEIFKFEAPGSVTRFLSSQRLIKEACDESRFDKNLSQALKFARDFLGDGLFTSWTHEINWKKAHNILLPSFSQQAMKRYHAMMVDIAVQLVQKWERLNADEHIEVSEDMTRLTLDTIGLCGFNYRFNSFYRDQPHPFIISMVRALDEVMNKLQRANPDDPAYDENKRQCQEDIKVMNDYVDKIIADRKARGEQSHDLLTQMLNGKDPETGEPLDDGNISYQIITFLIAGHETTSGLLSFALYFLVKNPHVLQKVAEEAARVLVDPVPSYKQVKQLKYVGMVLNEALRLWPTAPAFSLYAKEDTVLGGEYPLKKGDEVMVLIPQLHRDKTIWGDDVEEFRPERFENPSAIPQHAFKPFGNGQRACIGQQFALHEATLVLGMMLKHFDFEDHTNYELDIKETLTLKPEGFVVKAKSKKIPLGGIPSPSTEQSAKKVRKKAENAHNTPLLVLYGSNAGTAEGTARDLADIAMSKGFAPQVATLDSHAGNLPREGAVLIVTASYNGHPPDNAKQFVDWLDQASADEVKGVRYSVFGCGDKNWAATYQKVPAFIDETLAAKGAENIADRGEADASDDFEGTYEEWRDHMWSDVASYFNLDIENSEDNKSTLSLQFVDSAADMPLAKMHGAFSTNVVASKELQQPGSARSTRHLEIELPKEASYQEGDHLGVIPRNYEGIVNRVTARFGLSASQQIRLEAEEEKLAHLPLAKTVSVEELLQYVELQDPVTRTQLRAMAAKTVCPPHKVELEALLEKQAYKEQVLAKRLTMLELLEKYPACEMKFSEFIALLPSIRPRYYSISSSPRVDEKQASITVSVVSGEAWSGYGEYKGIASNYLAELQEGDTITCFISTPQSEFTLPKDPETPLIMVGPGTGVAPFRGFVQARKQLKEQGQSLGEAHLYFGCRSPHEDYLYQEELENAQSEGIITLHTAFSRMPNQPKTYVQHVMEQDGKKLIELLDQGAHFYICGDGSQMAPAVEATLMKSYADVHQVSEADARLWLQQLEEKGRYAKDVWAG
modifications: P450_BM3
notes: C48S; Y52F; G115R; L216Y; D232H; E349K; M491A; T577A; E619D; A627S; D722S
B2: Variant 14: P450-BM3 variant of SEQ ID NO: 4: C48S; I95P; G115R; L216Y; D232H; M491A; N574T; D722S (protein)
chain: B1 chain with R32K, F52Y, L83A, F88V, I95P, K349E, N574T, A577T, D619E, S627A
modifications: P450_BM3
notes: I95P; G115R; L216Y; D232H; M491A; N574T; D722S
B3: Variant 17: P450-BM3 variant of SEQ ID NO: 6: K32R; C48S; Y52F; I95P; Q111R; G115R; I176V; L216Y; D232H; E349T; M491A; T577A; E619D; D722S (protein)
chain: B1 chain with I95P, Q111R, I176V, K349T, S627A
modifications: P450_BM3
notes: C48S; Y52F; I95P; Q111R; G115R; I176V; L216Y; D232H; E349T; M491A; T577A; E619D; D722S
B4: Variant 15: P450-BM3 variant of SEQ ID NO: 4: K32R; C48S; I95P; L216Y; D232H; E349T; M491A; N574T; T577A; E619D; D722S (protein)
chain: B1 chain with F52Y, L83A, F88V, I95P, R115G, K349T, N574T, S627A
modifications: P450_BM3
notes: C48S; I95P; L216Y; D232H; E349T; M491A; N574T; T577A; E619D; D722S

Experiment: Validation of generalist properties: oxidation of diclofenac by lyophilized P450-BM3 variant, UPLC-MS
Assay type: biochemical
Conditions: [Diclofenac] = 1 mM
Procedure, shortened: (§1)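 Lyophilized lysate of E. coli-expressed P450-BM3 variant (stock standardized to 12 μM heme) was incubated 24 h at 30 °C with 1 or 2 mM substrate, 1.0 mM NADP+, 25 mM glucose, 0.5 mg/mL glucose dehydrogenase and 5% DMSO in 100 mM potassium phosphate. Acetonitrile-quenched samples were analyzed by UPLC-MS (positive ESI).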

Row | Molecule | % Conv.
1 | B1 | ++++ (15.01-20.00)
2 | B2 | ++++ (15.01-20.00)
3 | B3 | ++++ (15.01-20.00)
4 | B4 | ++++ (15.01-20.00)

Same assay, conditions: [Diclofenac] = 1 mM; TON = [substrate]*% conversion/[P450]

Row | Molecule | TON
5 | B1 | ‡‡‡‡ (10000-50000)
6 | B2 | ‡‡‡‡ (10000-50000)
7 | B3 | ‡‡‡‡ (10000-50000)
8 | B4 | ‡‡‡‡ (10000-50000)

Same assay, conditions: [Diclofenac] = 1 mM; fold improvement over parent MCYP-1.2-A07

Row | Molecule | FIOPC (A07)
9 | B2 | ** (3.01-5.0)
10 | B4 | * (0.0-3.0)

Same assay, conditions: [Diclofenac] = 1 mM; fold improvement over parent MCYP-1.2-A12

Row | Molecule | FIOPC (A12)
11 | B1 | * (0.0-3.0)
12 | B3 | * (0.0-3.0)

Experiment: Validation of generalist properties over the four substrates screened
Assay type: biochemical
Conditions: not given
Protocol: For the production of lyophilized protein powders, LB agar plates supplemented with chloramphenicol (30 μg/mL) were streaked with E. coli containing a desired B. megaterium P450-BM3 variant in an IPTG-inducible vector. The plates were grown at 37° C. for 16 hrs before single clones were selected to inoculate a 15 mL Falcon™ tube (Fisher) containing TB media (3 mL) supplemented with chloramphenicol (30 μg/mL). The tube was shaken at 200 rpm, 30° C., and 85% humidity for 20-24 h to grow the cultures to saturation. Then, 2.5 mL of the overnight culture was used to inoculate sterile 1 L flasks containing TB medium (250 mL) supplemented with chloramphenicol (30 μg/mL), trace element solution (as described above), and 0.05 g/L ammonium iron (III) citrate. After being shaken at 250 rpm, 30° C., and 85% humidity to an OD600 of 0.8-1.2, P450 expression was induced by addition of IPTG (500 uM) and the heme precursor 5-aminolevulinic acid (5-ALA) to a final concentration of 500 uM. The cultures were grown for additional 20-24 hours and centrifuged in pre-weighed 250 mL centrifuge bottles for 20 minutes at 4000 rpm, 4° C. The supernatants were discarded, and the centrifuge bottles containing cell pellets were weighed. The pellets were resuspended in 50 mM potassium phosphate buffer with 2 mM DTT, pH 8.0 (5 mL of buffer per gram of cell pellet). The cells were lysed using a microfluidizer homogenizer, and the suspensions of cells and lysate were collected in sterile 50 mL centrifuge tubes. The samples were centrifuged for 30 minutes at 10,000 rpm, 4° C. The clarified lysate was collected into a plastic petri plate and frozen at −80° C. prior to lyophilization. The enzyme-containing lysates were lyophilized using standard methods known in the art.
Enzyme stocks (˜12 μM) were prepared by dissolving ˜20 mg of each enzyme in 100 mM potassium phosphate buffer, pH 8.0 (1 mL). The concentration of each enzyme stock solution was determined by the UV-visible absorption spectroscopy (after centrifugation to remove particulates) and diluted to standardize at 12 μM heme protein. Substrate solutions were prepared by dissolving each substrate in DMSO to reach a final concentration of 20 mM or 40 mM. Reaction mix (235 μL) followed by enzyme solution (50 μL) was added to the plates. The substrate stock solution was added to the enzyme solutions (15 μL at the two different concentrations). Each reaction contained 100 mM potassium phosphate, 1.0 mM NADP+, 25 mM glucose, 0.5 mg/mL glucose dehydrogenase, 5% DMSO and substrate at 1 or 2 mM. Loratadine, imatinib, and gefitinib (See, FIG. 1) were selected as substrates in addition to diclofenac to validate improved BM3 variants. The reactions were shaken at 450 rpm at 30° C. over 24 hours. All reactions were diluted with acetonitrile to a final concentration of 0.5 mM substrate. The plates were then centrifuged at 3,000 g for 1 hour at 20° C. The supernatant was diluted 1:1 with acetonitrile, filtered using a 0.4 micron filter, and analyzed by UPLC-MS.
For UPLC-MS analysis, the quenched and filtered reactions were transferred to 96-well HTP plates for analysis by UPLC on a Waters Acquity H-class system equipped with an autosampler. 1 uL of quenched sample was injected onto an Acquity UPLC HSS T3 column, 100 Å, (1.8 um; 2.1×100 mm). […] Column eluent was monitored by PDA (200-600 nm) prior to MS analysis in positive ESI mode (desolvation temperature 350° C., 3.25 kV spray voltage, cone voltage 25V). […]

Row | Molecule | performance (% conversion at 1 mM substrate loading) over the substrates screened, in words
13 | B1 | improved and significant activity for three out of four substrates screened
14 | B2 | moderate activity for all four substrates
15 | B3 | improved and significant activity for three out of four substrates screened
16 | B4 | moderate activity for all four substrates

Experiment: Validation of generalist properties: oxidation of gefitinib by lyophilized P450-BM3 variant, UPLC-MS
Assay type: biochemical
Conditions: [Gefitinib] = 1 mM
Procedure, shortened: as §1

Row | Molecule | % Conv.
17 | B1 | ++++ (15.01-20.00)
18 | B2 | ++++ (15.01-20.00)
19 | B3 | ++++ (15.01-20.00)
20 | B4 | ++++ (15.01-20.00)

Same assay, conditions: [Gefitinib] = 1 mM; TON = [substrate]*% conversion/[P450]

Row | Molecule | TON
21 | B1 | ‡‡‡‡ (10000-50000)
22 | B2 | ‡‡‡‡ (10000-50000)
23 | B3 | ‡‡‡‡ (10000-50000)
24 | B4 | ‡‡‡‡ (10000-50000)

Same assay, conditions: [Gefitinib] = 1 mM; fold improvement over parent MCYP-1.2-A07

Row | Molecule | FIOPC (A07)
25 | B2 | **** (10.01-15.00)
26 | B4 | **** (10.01-15.00)

Same assay, conditions: [Gefitinib] = 1 mM; fold improvement over parent MCYP-1.2-A12

Row | Molecule | FIOPC (A12)
27 | B1 | **** (10.01-15.00)
28 | B3 | *** (5.01-10.0)

Experiment: Validation of generalist properties: oxidation of imatinib by lyophilized P450-BM3 variant, UPLC-MS
Assay type: biochemical
Conditions: [Imatinib] = 1 mM
Procedure, shortened: as §1

Row | Molecule | % Conv.
29 | B1 | ++++ (15.01-20.00)
30 | B2 | +++ (10.01-15.00)
31 | B3 | ++++ (15.01-20.00)
32 | B4 | ++++ (15.01-20.00)

Same assay, conditions: [Imatinib] = 1 mM; TON = [substrate]*% conversion/[P450]

Row | Molecule | TON
33 | B1 | ‡‡‡‡ (10000-50000)
34 | B2 | ‡‡‡ (5001-10000)
35 | B3 | ‡‡‡‡ (10000-50000)
36 | B4 | ‡‡‡ (5001-10000)

Same assay, conditions: [Imatinib] = 1 mM; fold improvement over parent MCYP-1.2-A07

Row | Molecule | FIOPC (A07)
37 | B2 | * (0.0-3.0)
38 | B4 | ** (3.01-5.0)

Same assay, conditions: [Imatinib] = 1 mM; fold improvement over parent MCYP-1.2-A12

Row | Molecule | FIOPC (A12)
39 | B1 | **** (10.01-15.00)
40 | B3 | **** (10.01-15.00)

Experiment: Validation of generalist properties: oxidation of loratadine by lyophilized P450-BM3 variant, UPLC-MS
Assay type: biochemical
Conditions: [Loratadine] = 1 mM
Procedure, shortened: as §1

Row | Molecule | % Conv.
41 | B1 | + (0-5.00)
42 | B2 | +++ (10.01-15.00)
43 | B3 | + (0-5.00)
44 | B4 | ++++ (15.01-20.00)

Same assay, conditions: [Loratadine] = 1 mM; TON = [substrate]*% conversion/[P450]

Row | Molecule | TON
45 | B1 | ‡ (0-1000)
46 | B2 | ‡‡‡ (5001-10000)
47 | B3 | ‡ (0-1000)
48 | B4 | ‡‡‡‡ (10000-50000)

Same assay, conditions: [Loratadine] = 1 mM; fold improvement over parent MCYP-1.2-A07

Row | Molecule | FIOPC (A07)
49 | B2 | * (0.0-3.0)
50 | B4 | * (0.0-3.0)

Same assay, conditions: [Loratadine] = 1 mM; fold improvement over parent MCYP-1.2-A12

Row | Molecule | FIOPC (A12)
51 | B1 | * (0.0-3.0)
52 | B3 | * (0.0-3.0)
